# What was measured:
# Assay in all cases: Kinase Profiling Assay
# Assay type in all cases: biochemical
# Settings in all cases: 100 μM
# [1] = biological target: T1, Aurora-A(h) (Homo sapiens, UniProt O14965)
# T1 sequence (O14965 1-403): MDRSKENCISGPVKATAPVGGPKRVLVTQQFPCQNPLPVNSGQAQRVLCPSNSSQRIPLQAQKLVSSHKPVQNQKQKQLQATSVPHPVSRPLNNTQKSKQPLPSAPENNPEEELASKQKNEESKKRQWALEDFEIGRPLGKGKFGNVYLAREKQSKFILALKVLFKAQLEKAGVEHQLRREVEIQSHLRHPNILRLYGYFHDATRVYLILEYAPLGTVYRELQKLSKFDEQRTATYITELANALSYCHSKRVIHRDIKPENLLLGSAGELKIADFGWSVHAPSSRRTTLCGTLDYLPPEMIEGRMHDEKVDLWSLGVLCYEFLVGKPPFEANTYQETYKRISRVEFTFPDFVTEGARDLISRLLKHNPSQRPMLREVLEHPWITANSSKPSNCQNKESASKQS
# [2] = biological target: c-RAF(h) (Homo sapiens, UniProt P04049)
# [3] = biological target: T2, JAK3(h) (Homo sapiens, UniProt P52333)
# T2 sequence (P52333 1-1124): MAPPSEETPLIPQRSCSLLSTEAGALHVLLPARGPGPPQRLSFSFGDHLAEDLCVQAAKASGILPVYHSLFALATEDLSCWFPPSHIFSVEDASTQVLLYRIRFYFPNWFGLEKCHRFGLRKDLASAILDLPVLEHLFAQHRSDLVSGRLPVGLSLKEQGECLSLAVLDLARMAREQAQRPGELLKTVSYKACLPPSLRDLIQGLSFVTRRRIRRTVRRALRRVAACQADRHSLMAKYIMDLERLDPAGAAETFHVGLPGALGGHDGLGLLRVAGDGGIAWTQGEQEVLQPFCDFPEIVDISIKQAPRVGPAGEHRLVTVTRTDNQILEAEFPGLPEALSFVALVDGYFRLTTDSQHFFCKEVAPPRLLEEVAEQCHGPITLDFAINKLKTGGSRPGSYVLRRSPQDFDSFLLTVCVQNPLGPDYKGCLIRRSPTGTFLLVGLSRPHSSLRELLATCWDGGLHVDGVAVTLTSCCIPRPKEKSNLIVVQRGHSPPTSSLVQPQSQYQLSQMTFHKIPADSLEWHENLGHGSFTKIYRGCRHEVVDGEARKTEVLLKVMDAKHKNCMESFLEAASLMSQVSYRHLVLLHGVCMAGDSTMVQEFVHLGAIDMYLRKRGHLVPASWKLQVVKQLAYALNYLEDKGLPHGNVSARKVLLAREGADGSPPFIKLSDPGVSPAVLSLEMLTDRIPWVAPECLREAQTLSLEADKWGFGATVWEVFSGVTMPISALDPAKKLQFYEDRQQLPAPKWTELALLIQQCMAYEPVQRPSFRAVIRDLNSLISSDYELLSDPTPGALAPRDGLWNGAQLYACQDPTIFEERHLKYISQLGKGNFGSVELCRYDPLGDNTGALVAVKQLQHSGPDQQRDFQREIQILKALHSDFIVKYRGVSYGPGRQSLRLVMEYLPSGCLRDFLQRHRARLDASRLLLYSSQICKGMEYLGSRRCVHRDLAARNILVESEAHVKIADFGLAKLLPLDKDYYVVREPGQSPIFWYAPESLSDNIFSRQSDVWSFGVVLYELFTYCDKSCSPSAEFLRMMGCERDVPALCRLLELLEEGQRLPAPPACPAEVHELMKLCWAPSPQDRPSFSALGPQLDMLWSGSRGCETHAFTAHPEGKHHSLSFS
# [4] = biological target: PKA(h) (Homo sapiens, UniProt P17612)
# [5] = biological target: Snk(h) (Homo sapiens, UniProt Q9NYY3)
# [6] = biological target: CK1γ1(h) (Homo sapiens, UniProt Q9HCP0)
# [7] = biological target: CLK2(h) (Homo sapiens, UniProt P49760)
# [8] = biological target: Plk1(h) (Homo sapiens, UniProt P53350)
# [9] = biological target: PAK6(h) (Homo sapiens, UniProt Q9NQU5)
# [10] = biological target: CK1γ2(h) (Homo sapiens, UniProt P78368)
# CK1γ2(h), sequence (P78368 whole entry): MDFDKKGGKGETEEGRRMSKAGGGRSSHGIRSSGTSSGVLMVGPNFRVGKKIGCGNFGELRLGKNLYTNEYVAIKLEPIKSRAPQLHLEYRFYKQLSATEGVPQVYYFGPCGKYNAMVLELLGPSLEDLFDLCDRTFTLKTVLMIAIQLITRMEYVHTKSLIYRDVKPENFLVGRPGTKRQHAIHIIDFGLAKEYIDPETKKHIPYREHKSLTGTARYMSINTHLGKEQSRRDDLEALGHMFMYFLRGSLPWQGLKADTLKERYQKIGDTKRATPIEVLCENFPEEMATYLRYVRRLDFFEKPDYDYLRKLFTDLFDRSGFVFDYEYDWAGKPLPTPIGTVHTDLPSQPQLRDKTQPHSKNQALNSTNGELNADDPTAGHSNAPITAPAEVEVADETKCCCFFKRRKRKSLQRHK
# Snk(h), sequence (Q9NYY3 whole entry): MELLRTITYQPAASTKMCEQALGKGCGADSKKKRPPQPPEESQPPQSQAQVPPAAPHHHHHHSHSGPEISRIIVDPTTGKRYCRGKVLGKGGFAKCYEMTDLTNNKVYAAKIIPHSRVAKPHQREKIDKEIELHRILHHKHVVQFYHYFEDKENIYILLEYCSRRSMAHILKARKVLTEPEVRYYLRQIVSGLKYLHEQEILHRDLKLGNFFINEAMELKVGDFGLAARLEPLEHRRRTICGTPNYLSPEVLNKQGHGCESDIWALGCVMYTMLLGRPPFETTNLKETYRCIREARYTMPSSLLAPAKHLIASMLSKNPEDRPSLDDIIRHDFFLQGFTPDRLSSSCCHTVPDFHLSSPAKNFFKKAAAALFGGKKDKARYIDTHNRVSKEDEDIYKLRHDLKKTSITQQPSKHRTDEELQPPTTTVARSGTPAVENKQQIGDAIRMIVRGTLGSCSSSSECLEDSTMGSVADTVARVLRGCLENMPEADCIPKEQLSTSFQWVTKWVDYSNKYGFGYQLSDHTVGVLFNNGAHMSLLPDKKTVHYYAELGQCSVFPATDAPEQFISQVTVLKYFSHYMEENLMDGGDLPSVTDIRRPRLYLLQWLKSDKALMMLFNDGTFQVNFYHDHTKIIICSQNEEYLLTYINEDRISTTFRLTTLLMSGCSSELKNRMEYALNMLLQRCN
# PAK6(h), sequence (Q9NQU5 whole entry): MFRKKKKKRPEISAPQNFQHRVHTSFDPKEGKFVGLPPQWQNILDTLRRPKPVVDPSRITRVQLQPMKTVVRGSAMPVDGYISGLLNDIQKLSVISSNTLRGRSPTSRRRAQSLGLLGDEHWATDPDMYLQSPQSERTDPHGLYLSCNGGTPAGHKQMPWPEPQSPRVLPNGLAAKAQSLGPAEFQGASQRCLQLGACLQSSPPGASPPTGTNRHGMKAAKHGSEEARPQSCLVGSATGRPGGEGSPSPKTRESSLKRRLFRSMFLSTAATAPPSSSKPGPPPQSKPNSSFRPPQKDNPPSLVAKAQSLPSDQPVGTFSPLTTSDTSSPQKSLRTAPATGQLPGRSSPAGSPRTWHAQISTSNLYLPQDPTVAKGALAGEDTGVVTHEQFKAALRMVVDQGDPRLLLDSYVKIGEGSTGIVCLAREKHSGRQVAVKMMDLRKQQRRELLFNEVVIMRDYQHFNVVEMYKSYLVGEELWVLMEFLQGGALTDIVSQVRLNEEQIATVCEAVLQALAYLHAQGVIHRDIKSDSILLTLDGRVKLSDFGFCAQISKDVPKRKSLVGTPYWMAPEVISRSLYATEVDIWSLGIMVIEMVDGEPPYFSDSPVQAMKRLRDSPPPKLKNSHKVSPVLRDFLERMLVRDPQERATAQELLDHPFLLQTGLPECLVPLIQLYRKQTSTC
# CK1γ1(h), sequence (Q9HCP0 whole entry): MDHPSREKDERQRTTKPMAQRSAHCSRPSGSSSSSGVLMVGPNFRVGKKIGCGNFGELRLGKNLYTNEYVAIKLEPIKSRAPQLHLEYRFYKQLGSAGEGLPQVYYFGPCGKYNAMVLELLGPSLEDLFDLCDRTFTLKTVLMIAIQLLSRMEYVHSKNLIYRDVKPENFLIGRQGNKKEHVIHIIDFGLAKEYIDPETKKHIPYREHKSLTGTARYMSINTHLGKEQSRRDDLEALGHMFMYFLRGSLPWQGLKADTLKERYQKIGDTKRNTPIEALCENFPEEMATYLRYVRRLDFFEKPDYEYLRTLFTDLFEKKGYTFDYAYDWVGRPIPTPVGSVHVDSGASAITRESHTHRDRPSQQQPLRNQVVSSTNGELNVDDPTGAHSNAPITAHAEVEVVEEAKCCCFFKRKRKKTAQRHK
# CLK2(h), sequence (P49760 whole entry): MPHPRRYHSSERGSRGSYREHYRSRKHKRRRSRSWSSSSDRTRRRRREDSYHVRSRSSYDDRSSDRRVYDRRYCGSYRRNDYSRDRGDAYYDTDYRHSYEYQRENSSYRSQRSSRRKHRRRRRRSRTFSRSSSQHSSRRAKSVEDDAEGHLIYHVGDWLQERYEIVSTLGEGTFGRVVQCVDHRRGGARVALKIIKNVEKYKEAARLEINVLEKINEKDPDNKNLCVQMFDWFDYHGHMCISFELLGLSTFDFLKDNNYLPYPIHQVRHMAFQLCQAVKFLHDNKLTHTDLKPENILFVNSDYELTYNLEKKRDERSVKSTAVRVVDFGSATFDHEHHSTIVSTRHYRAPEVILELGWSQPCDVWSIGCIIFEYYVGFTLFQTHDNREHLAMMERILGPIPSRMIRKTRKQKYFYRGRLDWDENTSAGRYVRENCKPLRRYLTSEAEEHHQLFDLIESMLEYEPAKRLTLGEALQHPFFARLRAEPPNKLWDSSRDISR
# Plk1(h), sequence (P53350 whole entry): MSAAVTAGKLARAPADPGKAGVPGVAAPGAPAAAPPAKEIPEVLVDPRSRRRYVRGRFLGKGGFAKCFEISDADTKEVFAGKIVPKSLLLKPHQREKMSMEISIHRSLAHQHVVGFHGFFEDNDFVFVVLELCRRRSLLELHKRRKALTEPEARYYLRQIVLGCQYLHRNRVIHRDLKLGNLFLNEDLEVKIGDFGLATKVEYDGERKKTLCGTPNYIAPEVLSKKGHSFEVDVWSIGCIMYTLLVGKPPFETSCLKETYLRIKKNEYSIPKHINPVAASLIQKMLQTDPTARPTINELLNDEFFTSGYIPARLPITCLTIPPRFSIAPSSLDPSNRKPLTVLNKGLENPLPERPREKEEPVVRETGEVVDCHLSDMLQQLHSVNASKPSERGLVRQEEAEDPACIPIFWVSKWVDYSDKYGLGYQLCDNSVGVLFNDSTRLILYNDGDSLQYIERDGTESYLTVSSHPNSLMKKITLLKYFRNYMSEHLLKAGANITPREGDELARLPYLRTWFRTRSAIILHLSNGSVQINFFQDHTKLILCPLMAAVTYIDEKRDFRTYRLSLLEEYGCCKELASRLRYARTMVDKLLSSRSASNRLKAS
Sequence,% activity [1] [%],% activity [2] [%],% activity [3] [%],% activity [4] [%],% activity [5] [%],% activity [6] [%],% activity [7] [%],% activity [8] [%],% activity [9] [%],% activity [10] [%]
HRRIKAWLKKIKALARQLGVAA [MMI-0500],110,19,95,118,122,,,,,
YARAAARQARAKALNRQLGVA [MMI-0200],,,,110,,98,97,128,,
KAFAKLAARLYRKALARQLGVAA [MMI-0400],,,122,,131,,,,100,
FAKLAARLYRKALARQLGVAA [MMI-0300],92,,,,,,,,,123
